Source: patent US20160201097A1, “Materials and Methods of Producing 7-Carbon Monomers” (INVISTA North America S.á.r.l., priority 2014, published 2016)

B1: SEQ ID NO: 6: Segniliparus rotundus carboxylate reductase, N-terminal HIS tagged (protein, listed as Segniliparus rotundus)
chain: MTQSHTQGPQASAAHSRLARRAAELLATDPQAAATLPDPEVVRQATRPGLRLAERVDAILSGYADRPALGQRSFQTVKDPITGRSSVELLPTFDTITYRELRERATAIASDLAHHPQAPAKPGDFLASIGFISVDYVAIDIAGVFAGLTAVPLQTGATLATLTAITAETAPTLFAASIEHLPTAVDAVLATPSVRRLLVFDYRAGSDEDREAVEAAKRKIADAGSSVLVDVLDEVIARGKSAPKAPLPPATDAGDDSLSLLIYTSGSTGTPKGAMYPERNVAHFWGGVWAAAFDEDAAPPVPAINITFLPLSHVASRLSLMPTLARGGLMHFVAKSDLSTLFEDLKLARPTNLFLVPRVVEMLYQHYQSELDRRGVQDGTREAEAVKDDLRTGLLGGRILTAGFGSAPLSAELAGFIESLLQIHLVDGYGSTEAGPVWRDGYLVKPPVTDYKLIDVPELGYFSTDSPHPRGELAIKTQTILPGYYKRPETTAEVFDEDGFYLTGDVVAQIGPEQFAYVDRRKNVLKLSQGEFVTLAKLEAAYSSSPLVRQLFVYGSSERSYLLAVIVPTPDALKKFGVGEAAKAALGESLQKIARDEGLQSYEVPRDFIIETDPFTVENGLLSDARKSLRPKLKEHYGERLEAMYKELADGQANELRDIRRGVQQRPTLETVRRAAAAMLGASAAEIKPDAHFTDLGGDSLSALTFSNFLHDLFEVDVPVGVIVSAANTLGSVAEHIDAQLAGGRARPTFATVHGKGSTTIKASDLTLDKFIDEQTLEAAKHLPKPADPPRTVLLTGANGWLGRFLALEWLERLAPAGGKLITIVRGKDAAQAKARLDAAYESGDPKLAGHYQDLAATTLEVLAGDFSEPRLGLDEATWNRLADEVDFISHPGALVNHVLPYNQLFGPNVAGVAEIIKLAITTRIKPVTYLSTVAVAAGVEPSALDEDGDIRTVSAERSVDEGYANGYGNSKWGGEVLLREAHDRTGLPVRVFRSDMILAHQKYTGQVNATDQFTRLVQSLLATGLAPKSFYELDAQGNRQRAHYDGIPVDFTAESITTLGGDGLEGYRSYNVFNPHRDGVGLDEFVDWLIEAGHPITRIDDYDQWLSRFETSLRGLPESKRQASVLPLLHAFARPGPAVDGSPFRNTVFRTDVQKAKIGAEHDIPHLGKALVLKYADDIKQLGLL
modifications: N-terminal His tag
notes: Segniliparus rotundus carboxylate reductase, N-terminal HIS tagged
B2: SEQ ID NO: 7: Chromobacterium violaceum ω-transaminase, N-terminal HIS tagged (protein, listed as Chromobacterium violaceum)
chain: MQKQRTTSQWRELDAAHHLHPFTDTASLNQAGARVMTRGEGVYLWDSEGNKIIDGMAGLWCVNVGYGRKDFAEAARRQMEELPFYNTFFKTTHPAVVELSSLLAEVTPAGFDRVFYTNSGSESVDTMIRMVRRYWDVQGKPEKKTLIGRWNGYHGSTIGGASLGGMKYMHEQGDLPIPGMAHIEQPWWYKHGKDMTPDEFGVVAARWLEEKILEIGADKVAAFVGEPIQGAGGVIVPPATYWPEIERICRKYDVLLVADEVICGFGRTGEWFGHQHFGFQPDLFTAAKGLSSGYLPIGAVFVGKRVAEGLIAGGDFNHGFTYSGHPVCAAVAHANVAALRDEGIVQRVKDDIGPYMQKRWRETFSRFEHVDDVRGVGMVQAFTLVKNKAKRELFPDFGEIGTLCRDIFFRNNLIMRACGDHIVSAPPLVMTRAEVDEMLAVAERCLEEFEQTLKARGLA
modifications: N-terminal His tag
notes: Chromobacterium violaceum ω-transaminase, N-terminal HIS tagged

Columns and labels:
[1] = carboxylate reductase activity: pimelate to pimelate semialdehyde (NADPH consumption, A340); format: biochemical; details: purified enzyme enhanced by sfp gene product, 2 mM pimelate, pH 7.5, room temperature, 20 min; against the empty vector control (FIG. 8)
Description: A nucleotide sequence encoding a HIS-tag was added to the nucleic acid sequences from Segniliparus rugosus and Segniliparus rotundus that encode the carboxylate reductases of SEQ ID NOs: 4 (EFV11917.1) and 6 (ADG98140.1), respectively (see FIG. 6), such that N-terminal HIS tagged carboxylate reductases could be produced. Each of the modified genes was cloned into a pET Duet expression vector along with a sfp gene encoding a HIS-tagged phosphopantetheine transferase from Bacillus subtilis, both under the T7 promoter. Each expression vector was transformed into a BL21[DE3] E. coli host and the resulting recombinant E. coli strains were cultivated at 37° C. in a 250 mL shake flask culture containing 50 mL LB media and antibiotic selection pressure, with shaking at 230 rpm. Each culture was induced overnight at 37° C. using an auto-induction media.
The pellet from each induced shake flask culture was harvested via centrifugation. Each pellet was resuspended and lysed via sonication, and the cell debris was separated from the supernatant via centrifugation. […]
Enzyme activity assays (i.e., from pimelate to pimelate semialdehyde) were performed in triplicate in a buffer composed of a final concentration of 50 mM HEPES buffer (pH=7.5), 2 mM pimelate, 10 mM MgCl2, 1 mM ATP and 1 mM NADPH. […] The consumption of NADPH was monitored by absorbance at 340 nm. […]

[2] = carboxylate reductase activity: N7-acetyl-7-aminoheptanoate to N7-acetyl-7-aminoheptanal (NADPH consumption, A340); format: biochemical; details: purified enzyme enhanced by sfp gene product, 2 mM N7-acetyl-7-aminoheptanoate, pH 7.5, room temperature, 20 min; against the empty vector control (FIG. 10)
Description: The activity of each of the N-terminal His-tagged carboxylate reductases of SEQ ID NOs: 3, 5, and 6 (see Examples 2 and 3, and FIG. 6) for converting N7-acetyl-7-aminoheptanoate to N7-acetyl-7-aminoheptanal was assayed in triplicate in a buffer composed of a final concentration of 50 mM HEPES buffer (pH=7.5), 2 mM N7-acetyl-7-aminoheptanoate, 10 mM MgCl2, 1 mM ATP, and 1 mM NADPH. The assays were initiated by adding purified carboxylate reductase and phosphopantetheine transferase or the empty vector control to the assay buffer containing the N7-acetyl-7-aminoheptanoate then incubated at room temperature for 20 min. The consumption of NADPH was monitored by absorbance at 340 nm.

[3] = carboxylate reductase activity: pimelate semialdehyde to heptanedial (NADPH consumption, A340); format: biochemical; details: purified enzyme enhanced by sfp gene product, 2 mM pimelate semialdehyde, pH 7.5, room temperature, 20 min; against the empty vector control (FIG. 11)
Description: The N-terminal His-tagged carboxylate reductase of SEQ ID NO: 6 (see Example 3 and FIG. 6) was assayed using pimelate semialdehyde as substrate. The enzyme activity assay was performed in triplicate in a buffer composed of a final concentration of 50 mM HEPES buffer (pH=7.5), 2 mM pimelate semialdehyde, 10 mM MgCl2, 1 mM ATP and 1 mM NADPH. The enzyme activity assay reaction was initiated by adding purified carboxylate reductase and phosphopantetheine transferase or the empty vector control to the assay buffer containing the pimelate semialdehyde and then incubated at room temperature for 20 min. The consumption of NADPH was monitored by absorbance at 340 nm.

[4] = ω-transaminase activity, reverse direction: 7-aminoheptanoate to pimelate semialdehyde (L-alanine formation by RP-HPLC); format: biochemical; details: cell free extract, 10 mM 7-aminoheptanoate, 10 mM pyruvate, pH 7.5, 25° C., 4 h; against the empty vector control (FIG. 13)
Description: (§1) A nucleotide sequence encoding an N-terminal His-tag was added to the nucleic acid sequences from Chromobacterium violaceum, Pseudomonas syringae, Rhodobacter sphaeroides, and Vibrio fluvialis encoding the ω-transaminases of SEQ ID NOs: 7, 9, 10 and 12, respectively (see FIG. 6) such that N-terminal HIS tagged ω-transaminases could be produced. Each of the resulting modified genes was cloned into a pET21a expression vector under control of the T7 promoter and each expression vector was transformed into a BL21[DE3] E. coli host. The resulting recombinant E. coli strains were cultivated at 37° C. in a 250 mL shake flask culture containing 50 mL LB media and antibiotic selection pressure, with shaking at 230 rpm. Each culture was induced overnight at 16° C. using 1 mM IPTG.
(§2) The pellet from each induced shake flask culture was harvested via centrifugation. Each pellet was resuspended and lysed via sonication. The cell debris was separated from the supernatant via centrifugation and the cell free extract was used immediately in enzyme activity assays.
Enzyme activity assays in the reverse direction (i.e., 7-aminoheptanoate to pimelate semialdehyde) were performed in a buffer composed of a final concentration of 50 mM HEPES buffer (pH=7.5), 10 mM 7-aminoheptanoate, 10 mM pyruvate and 100 μM pyridoxyl 5′ phosphate. Each enzyme activity assay reaction was initiated by adding cell free extract of the ω-transaminase gene product or the empty vector control to the assay buffer containing the 7-aminoheptanoate and incubated at 25° C. for 4 h, with shaking at 250 rpm. The formation of L-alanine from pyruvate was quantified via RP-HPLC.

[5] = ω-transaminase activity, forward direction: pimelate semialdehyde to 7-aminoheptanoate (pyruvate formation by RP-HPLC); format: biochemical; details: conclusion from reverse and forward assays of Example 1
Description: as §1, §2
Enzyme activity in the forward direction (i.e., pimelate semialdehyde to 7-aminoheptanoate) was confirmed for the transaminases of SEQ ID NO 9, SEQ ID NO 10 and SEQ ID NO 12. Enzyme activity assays were performed in a buffer composed of a final concentration of 50 mM HEPES buffer (pH=7.5), 10 mM pimelate semialdehyde, 10 mM L-alanine and 100 μM pyridoxyl 5′ phosphate. Each enzyme activity assay reaction was initiated by adding a cell free extract of the ω-transaminase gene product or the empty vector control to the assay buffer containing the pimelate semialdehyde and incubated at 25° C. for 4 h, with shaking at 250 rpm. The formation of pyruvate was quantified via RP-HPLC.

[6] = ω-transaminase activity: 7-aminoheptanol to 7-oxoheptanol (L-alanine formation by RP-HPLC); format: biochemical
Description: A nucleotide sequence encoding an N-terminal His-tag was added to the Chromobacterium violaceum, Pseudomonas syringae and Rhodobacter sphaeroides nucleic acids encoding the ω-transaminases of SEQ ID NOs: 7, 9 and 10, respectively (see FIG. 6) such that N-terminal HIS tagged ω-transaminases could be produced. The modified genes were cloned into a pET21a expression vector under the T7 promoter. Each expression vector was transformed into a BL21[DE3] E. coli host. Each resulting recombinant E. coli strain were cultivated at 37° C. in a 250 mL shake flask culture containing 50 mL LB media and antibiotic selection pressure, with shaking at 230 rpm. Each culture was induced overnight at 16° C. using 1 mM IPTG.
as §2
Enzyme activity assays in the reverse direction (i.e., 7-aminoheptanol to 7-oxoheptanol) were performed in a buffer composed of a final concentration of 50 mM HEPES buffer (pH=7.5), 10 mM 7-aminoheptanol, 10 mM pyruvate, and […] pyridoxyl 5′ phosphate. Each enzyme activity assay reaction was initiated by adding cell free extract of the ω-transaminase gene product or the empty vector control to the assay buffer containing the 7-aminoheptanol and then incubated at 25° C. for 4 h, with shaking at 250 rpm. The formation of L-alanine was quantified via RP-HPLC.

[7] = from the literature; cited from earlier work

Row | Molecule | acceptance of pimelate as substrate (NADPH consumption) [1] | acceptance of N7-acetyl-7-aminoheptanoate as substrate (NADPH consumption) [2] | acceptance of pimelate semialdehyde as substrate, forming heptanedial (NADPH consumption) [3] | acceptance of 7-aminoheptanoate as substrate (conversion of pyruvate to L-alanine) [4] | reversibility of ω-transaminase activity: pimelate semialdehyde accepted, 7-aminoheptanoate synthesized [5] | acceptance of 7-aminoheptanol as substrate (conversion of pyruvate to L-alanine) ([6]; cell free extract, 10 mM 7-aminoheptanol, 10 mM pyruvate, pH 7.5, 25° C., 4 h, against the empty vector control (FIG. 17)) | acceptance of 7-oxoheptanol as substrate forming 7-aminoheptanol ([6]; concluded from the reversibility of the ω-transaminase activity (Example 1)) | activity on 7-aminoheptanoate (conversion to pimelate semialdehyde) [7]
1 | B1 | accepted pimelate as substrate | accepted N7-acetyl-7-aminoheptanoate as substrate | accepted pimelate semialdehyde as substrate |  |  |  |  | 
2 | B2 |  |  |  | accepted 7-aminoheptanoate as substrate | accepted pimelate semialdehyde as substrate and synthesized 7-aminoheptanoate as a reaction product | accepted 7-aminoheptanol as substrate | accept 7-oxoheptanol as substrate and form 7-aminoheptanol | demonstrated analogous activity accepting 7-aminoheptanoic acid as amino donor
